Measurements from the supplement of paper PMC7125110.
± gives the standard error. Variants at the floor of the assay were thinned out.

B1: glmS ribozyme (parent)
chain: AUAAAAGCGCCAGAACUACAGAAAUGUAGUUGACGAGGAGGAGGUUUAUCGAAUUUUCGGCGGAUGCCUCCAAA

Columns and labels:
Conditions in all cases: with glucosamine-6-phosphate
[1] = variants of: B1; assay: self-cleavage kobs at 160 uM GlcN6P; higher = faster cleavage; RNA array
Summary of the method: (§1)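 In situ transcription by E. coli RNA polymerase produced barcoded ribozyme variants on sequenced MiSeq chips, and a hybridised Cy3 probe tracked them at 37 °C. Glucosamine-6-phosphate was flowed in at 40 μM to 10 mM in HEPES/KCl/Mg(OAc)2 buffer. kcat and KM were taken from weighted Michaelis–Menten fits of kobs values from exponential decay fits.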

[2] = variants of: B1; assay: self-cleavage kobs at 2500 uM GlcN6P; higher = faster cleavage; RNA array
Summary of the method: as §1

[3] = variants of: B1; assay: self-cleavage kobs at 640 uM GlcN6P; higher = faster cleavage; RNA array
Summary of the method: as §1

[4] = variants of: B1; assay: self-cleavage kobs at 10000 uM GlcN6P; higher = faster cleavage; RNA array
Summary of the method: as §1

| Variant | self-cleavage kobs at 160 uM GlcN6P [1] [s⁻¹] | self-cleavage kobs at 2500 uM GlcN6P [2] [s⁻¹] | self-cleavage kobs at 640 uM GlcN6P [3] [s⁻¹] | self-cleavage kobs at 10000 uM GlcN6P [4] [s⁻¹] |
| --- | --- | --- | --- | --- |
| G7U A33C C67A C68U | < 1e-05 | < 1e-05 | – | – |
| G7C C8G U30C | < 1e-05 | – | < 1e-05 | – |
| G9U A12C C67U | < 1e-05 | < 1e-05 | < 1e-05 | < 1e-05 |
| C11A G29A C34A U57C | < 1e-05 | – | < 1e-05 | – |
| G7A C58A | < 1e-05 | < 1e-05 | < 1e-05 | – |
| G7C A14G C61U | < 1e-05 | – | – | – |
| C10A A39U U69G | < 1e-05 | < 1e-05 | < 1e-05 | – |
| C10U C16U G38C | < 1e-05 | < 1e-05 | < 1e-05 | – |
| C11A G43C C61G | < 1e-05 | < 1e-05 | < 1e-05 | – |
| C11U A14U A64C | < 1e-05 | – | – | – |
| C8A G51U | < 1e-05 | – | < 1e-05 | – |
| G9C C34A | < 1e-05 | < 1e-05 | < 1e-05 | – |
| G9A C10A | < 1e-05 | < 1e-05 | < 1e-05 | < 1e-05 |
| C11G A39C G40U | < 1e-05 | < 1e-05 | < 1e-05 | – |
| C10A C70A | 6.28e-05 ± 1.3e-05 | 6.82e-05 ± 1.9e-05 | 0.000194 ± 3.9e-05 | – |
| G7U G66A | < 1e-05 | – | – | < 1e-05 |
| C8U C16U U54A C61A C71U | < 1e-05 | – | < 1e-05 | – |
| C11G G32A G59C | < 1e-05 | – | < 1e-05 | – |
| C8G C16U G35U C50G C70U | 0.000117 ± 2.9e-05 | 8.04e-05 ± 1.8e-05 | 0.000187 ± 5e-05 | – |
| C8A C16A U47C C58G | < 1e-05 | – | < 1e-05 | – |
| G9A U46G | < 1e-05 | – | < 1e-05 | < 1e-05 |
| G9U C58U | < 1e-05 | < 1e-05 | < 1e-05 | – |
| C10U U49G U56A | < 1e-05 | – | – | – |
| G9U A12G U54G | < 1e-05 | – | – | – |
| G9U G62A | < 1e-05 | < 1e-05 | < 1e-05 | < 1e-05 |
